Data on two molecules can be found in PMC5386860, “Variants of the Sir4 Coiled-Coil Domain Improve Binding to Sir3 for Heterochromatin Formation in Saccharomyces cerevisiae” (G3: Genes|Genomes|Genetics, 2017).

One assay concerns the target T1, Sir3 (464–978) (S. cerevisiae, UniProt P06701 464-978).
T1 construct: Purification according to Chang et al. (2003) and King et al. (2006); also called wild-type Sir3 fragment; source: E. coli BL21 Rosetta, purified (Ni-IDA, ion exchange, Superdex 200)
Put plainly: SEC; proteins mixed in equimolar ratio, 40 min on ice; Superdex 200 Increase 3.2/300, isocratic flow, 4°; fractions on SDS-PAGE, Coomassie. The settings on record: both partners purified.

For a further assay, the target named is T2, Sir3-1067(464–978) (S. cerevisiae, UniProt P06701 464-978, K657A | K658A).
T2 construct: also called mutant Sir3 fragment; source: E. coli BL21 Rosetta, purified (Ni-IDA, ion exchange, Superdex 200)
T2 sequence (P06701 464-978 K657A/K658A): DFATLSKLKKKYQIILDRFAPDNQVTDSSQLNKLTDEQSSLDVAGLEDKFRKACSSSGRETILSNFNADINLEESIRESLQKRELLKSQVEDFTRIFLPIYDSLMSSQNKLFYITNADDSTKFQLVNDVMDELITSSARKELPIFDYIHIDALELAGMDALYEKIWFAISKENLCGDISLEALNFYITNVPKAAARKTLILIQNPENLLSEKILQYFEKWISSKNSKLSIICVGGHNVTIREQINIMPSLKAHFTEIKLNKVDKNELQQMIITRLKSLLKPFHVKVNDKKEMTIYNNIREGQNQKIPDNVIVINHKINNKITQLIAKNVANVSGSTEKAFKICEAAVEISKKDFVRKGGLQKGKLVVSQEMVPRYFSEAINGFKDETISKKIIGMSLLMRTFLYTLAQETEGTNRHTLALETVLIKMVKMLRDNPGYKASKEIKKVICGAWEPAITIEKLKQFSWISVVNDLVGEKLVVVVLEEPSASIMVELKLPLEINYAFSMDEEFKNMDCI
The assay is described as above. The settings on record: both partners purified.

Residue numbers refer to the chain shown, from its start. Names and notes keep the numbering of the source.

T1 sequence (P06701 464-978): as the sequence (P06701 464-978 K657A/K658A) above, with A194K, A195K counted along it

B1: Sir4 (1217–1358) (domain or fragment, S. cerevisiae, UniProt P11978 1217-1358, looked up)
chain: SNTTEILTSVDVLGTHSQTGTQQSNMYTSTQKTELEIDNKDSVTECSKDMKEDGLSFVDIVLSKAASALDEKEKQLAVANEIIRSLSDEVMRNEIRITSLQGDLTFTKKCLENARSQISEKDAKINKLMEKDFQVNKEIKPY
notes: source: E. coli BL21 Rosetta, purified (Ni-NTA, Superdex 75)
Take B1: the binding result with Sir3 (464–978) is reported as “binds”.

B2: Sir4-ETK (1217–1358) (domain or fragment, S. cerevisiae, UniProt P11978 1217-1358, looked up)
chain: B1 chain with E94V, T98S, K109R
notes: also called Sir4-E1310V, T1314S, K1325R coiled-coil fragment; source: E. coli BL21 Rosetta, purified (Ni-NTA, Superdex 75)
On to B2, for which the binding result with Sir3-1067(464–978) is reported as “binds”.
